What was measured:
[1] = biological target: EGFR coated on the plate (competitive binding test) (UniProt P00533); assay: competitive ELISA on plate-coated EGFR; competitor cetuximab at […]; antibody:ligand molar ratio 1:10^4; remaining antibody binding
[2] = biological target: EGFR coated on the plate (competitive binding test) (UniProt P00533); assay: competitive ELISA on plate-coated EGFR; competitor GC1118 at […]; antibody:ligand molar ratio 1:10^5; remaining antibody binding
[3] = biological target: EGFR coated on the plate (competitive binding test) (UniProt P00533); assay: competitive ELISA on plate-coated EGFR; competitor cetuximab at […]; antibody:ligand molar ratio 1:10^5; remaining antibody binding
[4] = biological target: EGFR coated on the plate (competitive binding test) (UniProt P00533); assay: competitive ELISA on plate-coated EGFR; competitor GC1118 at […]; antibody:ligand molar ratio 1:10^4; remaining antibody binding
[5] = biological target: T1, EGFR coated on the plate (competitive binding test) (UniProt P00533 25-645, limits assumed); assay: competitive ELISA on plate-coated EGFR; competitor cetuximab at 1.5 nM; antibody:ligand molar ratio 1:10^5; remaining antibody binding
[6] = biological target: T1, EGFR coated on the plate (competitive …); assay: competitive ELISA on plate-coated EGFR; competitor GC1118 at 1.5 nM; antibody:ligand molar ratio 1:10^5; remaining antibody binding
[7] = biological target: T1, EGFR coated on the plate (competitive …); assay: competitive ELISA on plate-coated EGFR; competitor cetuximab at 1.5 nM; antibody:ligand molar ratio 1:10^4; remaining antibody binding
[8] = biological target: T1, EGFR coated on the plate (competitive …); assay: competitive ELISA on plate-coated EGFR; competitor GC1118 at 1.5 nM; antibody:ligand molar ratio 1:10^4; remaining antibody binding

Antibody binding (%) [1] | Antibody binding (%) [2] | Antibody binding (%) [3] | Antibody binding (%) [4] | Antibody binding (%) [5] | Antibody binding (%) [6] | Antibody binding (%) [7] | Antibody binding (%) [8] | Molecule
96.6% | 99.9% | 99.9% | 99.6% | – | – | – | – | Amphiregulin (from UniProt P15514 101-198) (ligand)
– | – | – | – | 76.1% | 31.2% | 96.2% | 65.1% | Heparin-binding EGF-like growth factor (ligand, human, UniProt Q99075 63-148, looked up, also called HB-EGF) DLQEADLDLLRVTLSSKPQALATPNKEEHGKRKKKGKGLGKKRDPCLRKYKDFCIHGECKYVKELRAPSCICHPGYHGERCHGLSL
– | – | – | – | 51.1% | 18.9% | 80.2% | 40.4% | β-Cellulin (ligand, human, UniProt P35070 32-111, looked up, also called BTC; betacellulin) DGNSTRSPETNGLLCGDPEENCAATTTQSKRKGHFSRCPKQYKHYCIKGRCRFVVAEQTPSCVCDEGYIGARCERVDLFY
